In PMC7058931, “DNA topoisomerase IIIβ promotes cyst generation by inducing cyst wall protein gene expression in Giardia lamblia”:

T1: TOP3β (DNA topoisomerase IIIβ) (Giardia lamblia WB, UniProt A8B577 1-973)
T1 sequence: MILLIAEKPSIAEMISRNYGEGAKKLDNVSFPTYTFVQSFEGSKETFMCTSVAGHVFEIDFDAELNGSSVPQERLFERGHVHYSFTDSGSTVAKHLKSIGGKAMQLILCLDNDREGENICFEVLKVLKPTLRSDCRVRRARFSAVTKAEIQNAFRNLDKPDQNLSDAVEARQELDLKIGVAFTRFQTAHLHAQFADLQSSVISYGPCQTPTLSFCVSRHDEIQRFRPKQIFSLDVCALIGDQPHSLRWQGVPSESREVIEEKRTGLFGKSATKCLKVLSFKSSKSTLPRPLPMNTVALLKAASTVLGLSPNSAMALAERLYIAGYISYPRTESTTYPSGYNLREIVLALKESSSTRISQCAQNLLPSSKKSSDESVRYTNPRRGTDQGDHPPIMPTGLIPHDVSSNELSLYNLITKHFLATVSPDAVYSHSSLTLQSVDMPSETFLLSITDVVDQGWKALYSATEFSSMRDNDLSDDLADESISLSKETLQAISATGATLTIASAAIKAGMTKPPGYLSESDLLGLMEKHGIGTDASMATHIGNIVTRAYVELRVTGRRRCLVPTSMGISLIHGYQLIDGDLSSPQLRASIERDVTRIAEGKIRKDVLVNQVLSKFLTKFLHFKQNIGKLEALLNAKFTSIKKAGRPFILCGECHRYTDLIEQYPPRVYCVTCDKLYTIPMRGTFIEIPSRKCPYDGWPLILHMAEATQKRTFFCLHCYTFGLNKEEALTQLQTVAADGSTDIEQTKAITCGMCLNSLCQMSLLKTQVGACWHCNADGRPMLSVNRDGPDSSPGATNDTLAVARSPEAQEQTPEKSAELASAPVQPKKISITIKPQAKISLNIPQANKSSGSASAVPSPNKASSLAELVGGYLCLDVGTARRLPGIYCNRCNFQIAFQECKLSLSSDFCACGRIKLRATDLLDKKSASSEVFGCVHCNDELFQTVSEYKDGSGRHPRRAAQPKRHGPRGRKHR


What was measured:
[1] = molecular target: T1, TOP3β (DNA topoisomerase IIIβ); assay: EMSA; supershifted by anti-TOP3β; EMSA: 0.02 pmol 32P probe, 5 ng protein, 20 µl, 0.5 µg poly(dI-dC), 15 min at room temperature, 6% acrylamide gel; buffer, salt and pH not given (cited reference); settings: protein: recombinant, tags: C-terminal V5 and His
[2] = molecular target: T1, TOP3β (DNA topoisomerase IIIβ); assay: EMSA; strong; EMSA: 0.02 pmol 32P probe, 5 ng protein, 20 µl, 0.5 µg poly(dI-dC), 15 min at room temperature, 6% acrylamide gel; buffer, salt and pH not given (cited reference); settings: protein: recombinant; tags: C-terminal V5 and His; label: 5'-32P
[3] = molecular target: T1, TOP3β (DNA topoisomerase IIIβ); assay: EMSA; EMSA: 0.02 pmol 32P probe, 5 ng protein, 20 µl, 0.5 µg poly(dI-dC), 15 min at room temperature, 6% acrylamide gel; buffer, salt and pH not given (cited reference); settings: protein: recombinant, tags: C-terminal V5 and His

Binder	binding result ([3]; label: 5'-32P)	binding result ([3]; label: 32P)	other results
GTCTTTCCCAAAAAATAAGTTACTACTGATATGTTTTCTC (ssDNA) [cwp3-30/+10F]			binding result ([1]; label: 32P): binds
cwp3-30/+10 (dsDNA) DNA 1: GTCTTTCCCAAAAAATAAGTTACTACTGATATGTTTTCTC DNA 2: GAGAAAACATATCAGTAGTAACTTATTTTTTGGGAAAGAC			binding result [2]: binds
cwp2-60/-31 (dsDNA) DNA 1: TAGACTGATGCTGTAGAGGTCAACAGATAA DNA 2: TTATCTGTTGACCTCTACAGCATCAGTCTA			binding result [2]: binds
ran-51/-20 (dsDNA) DNA 1: TAAAATAAATTAAATCGAAATTAAAACTTTAA DNA 2: TTAAAGTTTTAATTTCGATTTAATTTATTTTA	binds		
CTGGCTAACAGTCTACAGTCTACAATTTACAGTATACAATCTACA (ssDNA) [cwp1-90/-46F]		binds	
cwp1-90/-46 (dsDNA) DNA 1: CTGGCTAACAGTCTACAGTCTACAATTTACAGTATACAATCTACA DNA 2: TGTAGATTGTATACTGTAAATTGTAGACTGTAGACTGTTAGCCAG	binds		
GGCGCCCGGCCCGCGGCGCCCGCGCCCGGC (ssDNA) [18S-30/-1F]		no binding	
18S-60/-31 (dsDNA) DNA 1: CCGTGCCAGGCGGCGGCCCCCGCGCAGGGA DNA 2: TCCCTGCGCGGGGGCCGCCGCCTGGCACGG	no binding		
18S-30/-1 (dsDNA) DNA 1: GGCGCCCGGCCCGCGGCGCCCGCGCCCGGC DNA 2: GCCGGGCGCGGGCGCCGCGGGCCGGGCGCC	no binding		
TAGACTGATGCTGTAGAGGTCAACAGATAA (ssDNA) [cwp2-60/-31F]		binds	
cwp1-45/-1 (dsDNA) DNA 1: GTTTACAACTCTCAGATCAAGAAACACAGAAATAAAATATCAGGG DNA 2: CCCTGATATTTTATTTCTGTGTTTCTTGATCTGAGAGTTGTAAAC			binding result ([1]; label: 5'-32P): binds
GTTTACAACTCTCAGATCAAGAAACACAGAAATAAAATATCAGGG (ssDNA) [cwp1-45/-1F]		binds	
